Measured values reported in the supplement of paper PMC9170038.

Key:
[1] = test system: MS2 coat protein; experiment: apparent KD of MS2 coat protein; higher = weaker reporter binding; conditions: Eterna round: R107
Description: (§1)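 RNA-MaP round R107: designed RNA switches with theophylline, tryptophan, arginine or FMN aptamers are transcribed on-chip within common flanks. They are titrated with SNAP-549-labelled MS2 coat protein in RNA-MaP buffer (100 mM Tris pH 7.5, 80 mM KCl, 4 mM MgCl2), without ligand or with the indicated ligand. Median apparent KD per design.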

[2] = test system: K4 kissing-loop RNA reporter; experiment: apparent KD of K4 kissing-loop reporter; higher = weaker reporter binding; conditions: Eterna round: R107;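 further: bound reporter read as fluorescence of individual clusters on recovered sequencing chips by microscopy, with normalized cluster intensities fitted with a binding model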
Description: as §1, with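 “a labelled K4 kissing-loop RNA reporter” for “SNAP-549-labelled MS2 coat protein”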

[3] = input ligand: theophylline 20 uM
[4] = input ligand: theophylline 2 mM
[5] = input ligand: tryptophan 2.4 mM

Row | Sequence | apparent KD of MS2 coat protein ([1]; input ligand: arginine 13.2 mM) [nM] | apparent KD of MS2 coat protein [1, 3] [nM] | apparent KD of MS2 coat protein [1, 4] [nM] | apparent KD of MS2 coat protein ([1]; input ligand: none) [nM] | apparent KD of MS2 coat protein [1, 5] [nM] | apparent KD of K4 kissing-loop reporter ([2]; input ligand: FMN 200 uM) [nM] | apparent KD of K4 kissing-loop reporter ([2]; input ligand: arginine 13.2 mM) [nM] | apparent KD of K4 kissing-loop reporter ([2]; input ligand: none) [nM] | apparent KD of K4 kissing-loop reporter [2, 3] [nM] | apparent KD of K4 kissing-loop reporter [2, 5] [nM]
1 | CGCUACAUGAGGAUCACCCAUGUUACUCCGCGAGGACCGGUACGGCCGCCACUCGGCAGUUUGCGCCGCCGGAGGCACUCUUCAG [theeternabot_sameState_MS2_Trp_A_32] | 20.9 | 43.6 | 33.7 | – | – | – | – | – | – | –
2 | GGUCUCUGGAGCGAUACCAGCUUGAUCGUACUAGCCAGGUACAUGAGGAUCACCCAUGUAAGCCCUUGGCAGCGCUCCAGAGACC [#1 Exclusion - Theophylline B Attempt #9 (HarryS)] | 8.2 | 14.6 | 22.3 | 9.25 | 10.5 | – | – | – | – | –
3 | AUAUAUACAUGAGGAUCACCCAUGUUAUUUCGAGGACCGGUACGGCCGCCACUCGAUAGAGUAGAAGUAUUUUGGGAUAGUUGAU [JR_SSTryptoA_Sub015] | 19.7 | 30.7 | 23.6 | 18.5 | 15.6 | – | – | – | – | –
4 | AGCUUGUAGUCGGCCGCCACUAAUAGGGAUCCUAUCGAGGCGGGUAACAUGAGGAUCACCCAUGUUAGGACCGGGACAGCGAGGA [Cetian] | 10 | 15.4 | 11.6 | 16.6 | 10.8 | – | – | – | – | –
5 | UCACAUGAGGAUCACCCAUGUAUAGUUGAAGGAGCGAUCAGGAGGUCAGGUAGGUCGCAGCACAUGAGGAUCACCCAUGUAUCGA [DOUBLE!!! :-D #4] | 34 | 72.7 | 50.4 | 85.2 | 59.5 | – | – | – | – | –
6 | ACAUGAGGAUCACCCAUGUUCCUCUUUGAUACCAGUGAGUUGUUUCGCCCUUGGCAGCGAGUUUUUUUUUUUUUGUUUUGUUUGG [6.R] | 173 | 351 | – | – | 264 | – | – | – | – | –
7 | UAAACUACACAUGAGGAUCACCCAUGUGGCCGAGGACCGGUACGGCCGCCACUCGUGUGUUAAUAAAAGAACCGCAAAGUUCUGU [Ticerear] | 49.8 | 401 | 452 | – | – | – | – | – | – | –
8 | UUCGCGGCCGCGCUGCACAUGUGUGUGUUACGAGGACCGGUACGGCCGCCACUCGCGAUCGCACAUGAGGAUCACCCAUGUGGGA [Exclusion Tryp A GF17] | 24.1 | 35.8 | 75.6 | 25.7 | 1040 | – | – | – | – | –
9 | UUAUAAGUACCGGUCCUCAGAUCCUCAUGACGAGGACCGGUACGGCCGCCACUCGAAACAUGAGGAUCACCCAUGUAAUAACACU [Brourdmod20] | 19.2 | 30.4 | 24.6 | – | – | – | – | – | – | –
10 | UUAUUUAUAAUGGAUACCAGUCGUAUGGCCCGGAAUCCUGACAUGAGGAUCACCCAUGUCGACCCUUGGCAGCUGUUAUGGGUUU [XTheo B #22] | 13.7 | 16.3 | – | – | 14.9 | – | – | – | – | –
11 | AGAAUAACACAUGAGGAUCACCCAUGUGAUACCAGCUAGGAAACUAGCCCUUGGCAGCACAUAAGGUGAUCCAGCUGCCAAGAAU [(M1)-(M2)-(T1)-(T2)-(M)'-(T)'_Design1_2/19/17] | 65.2 | 175 | – | – | 102 | – | – | – | – | –
12 | GGGAGGGAGGCGGCCGCCACUGAUUUUCAUAUAUAUAUAACAUGAGGAUCACCCAUGUGGAUAUACAGGACCGGGCCUUUUUUUU [aaaH] | 17.6 | 30.1 | 19.1 | – | – | – | – | – | – | –
13 | CGCAAGCAACAUGAGGAUCACCCAUGUGAAGGAGCGCCGAAUAAGGCAGGUAGGUCGCACAUGAAUAAAUCAUGUAAAAGCUUGC [MAT - Exclusion Arginine A - Mod of Eli - D22] | 33.7 | 52.9 | 160 | 62.7 | 58.3 | – | – | – | – | –
14 | CAUAUAUAUUGAAGGAGCGACAUGAGGAUCACCCAUGUCUACCACGUCGAAAGACGCUCAUGUCAGGUAGGUCGCAAUAUAUAUG [Astros-Eli-mod5] | 41.5 | 86.2 | 144 | 124 | 106 | – | – | – | – | –
15 | UGAGUUAGACAAAAGUCUAGCUCUGGUGAAGGAGCGUCCGAAAGGACAGGUAGGUCGCACCACAUGAGCAUCAGCCAUGUUCCUU [ArgAS 23 #OpenEnded #AlternativeMS2] | 17.9 | 26.9 | 17.8 | 17.3 | 16.8 | – | – | – | – | –
16 | UCGGGCAGAGCGGCCGCCACUGUUUGGCAUGCGGAUGACGGAACAUGAGGAUCACCCAUGUUGAUUAGGACCGGGCUUGCGGAGA [eefullin] | 11.6 | 42.3 | 25.1 | 18.9 | 37 | – | – | – | – | –
17 | UCGUGUAUAUCGGAUACCAGUGAGAACGAUACAUGAGGAUCACCCAUGUGAGUUGAUGUACACCCUUGGCAGCUGUAUAUAUCUA [gghullin] | 18.9 | 27 | – | – | 20 | – | – | – | – | –
18 | UGGUCACUAGGAGAUACCAGCCGACAUGAGGAUCACCCAUGUAACCGGCGUCCUCCCUUAGGCCCUUGGCAGCUCGUAGUUGCUC [Vebice] | 11.9 | 22.5 | – | – | 12.6 | – | – | – | – | –
19 | CUAUUCUGUACGGCCGCCACUUCAACGUGUAAGCUGGUGGUCCACUACAUGAGGAUCACCCAUGUAAGGACCGGGUACGGCGCGG [theeternabot_exclusion_MS2_Trp_B_29] | 12 | 16.6 | 69.4 | 12.5 | 40 | – | – | – | – | –
20 | GGAUAGGACAGAAGGAGCGACAUGAGGAUCACCCAUGUCUACUACGUCGAAAGACGCUCAUGUCAGGUAGGUCGCUGUCCUAUCG [#28 Exclusion - Arginine B] | 70.9 | 263 | 458 | 241 | 250 | – | – | – | – | –
21 | AAUAAUCUAGGUGAUACCAGCUCAACAUGAGGAUCACCCAUGUACUCAUGUAGAGUUGAGAGCCCUUGGCAGCACCUAGAUAAUA [(Theo1)-(Ms2)-(M)'-(T)'-(Theo2)] | 198 | 665 | – | – | 1020 | – | – | – | – | –
22 | CUAUAAAUAUGAAGGAGCGUCGAAAAUGGGUAAACAUGAGGAUCACCCAUGUAAAGGGAACGACAGGUAGGUCGCAUAUUUAUAG [AstromonsSSArgB#11] | 139 | 188 | 257 | 180 | 219 | – | – | – | – | –
23 | UGUAUAUGAUGUGAUACCAGUGAAGAGCCAGUGAUGUUGGUAGAACUGGUAUAUAAAUAACACCCUUGGCAGCACAAUCACGUAC [whbob_Ex_Theo_B_sa98] | – | – | – | – | – | 192 | 188 | 202 | 265 | 196
24 | AGACUACUGAUAGGAUAUAACAUACUAACUCGUAUACCAAAGGUAUACGAGACCCUUCUAGUGAUGUUAGAAGGGUCGGUAGUCA [Omei KL FMN B Exc B v6] | – | – | – | – | – | 82.2 | 74 | 76.3 | 74.8 | 73.9
25 | UCUGCAAAGUCGGCCGCCACUCCGGGCCCUAUAAAUGGGCGCAGUGAUGUUGCGGCUAGGCCUCUGAGGACCGGGACUUUAUAGA [Anarisgema] | – | – | – | – | – | 37.4 | 45.8 | 184 | 88.3 | 175
26 | GCAGUGAUGUUGCUGAUGUGCAGUGGUAGUCGAGGACCGGUACGGCCGCCACUCGGUGAGAAUUUGCUAAUACAUCGAUAAGUGA [XVII] | – | – | – | – | – | 1210 | 614 | 1280 | 858 | 904
27 | GUUACGCAUGGAAGGAGCGCACUCCGAUUGAUCGACACAGUGAUGUUGUGGUUCGUUCGAAUGCAGGUAGGUCGCCAUGUGUAAC [Ex Arginine B K4 17] | – | – | – | – | – | 259 | 250 | 253 | 303 | 233
28 | UAGUCCUAGUGAUCGUUAUCAAGUGGUGGGCGAGGACCGGUACGGCCGCCACUCGACUAUGCAGUGAUGUUGCAAUCCGGACAAU [Exclusion - Tryptophan A (Freestyle 14)] | – | – | – | – | – | 209 | 238 | 222 | 254 | 213
29 | UAUACUAGACAAGAGAGAAUUCUCUCAAGAGAGGAUAUCCGAAUUCGGAGAAGGCUCUCUCAGUGAUGUUGGGAAUAGUCUAGAA [AK6 SS FMN A] | – | – | – | – | – | 150 | 151 | 188 | 229 | 177
30 | AAAUUUUCAAGUGAUACCAGACAUUUCUAUUACAUUAAUAUAGCUAAGUGAUGUUUAGCAGUCCCUUGGCAGCACUAUUUAAUUA [JR_SSTheophyB_Sub014] | – | – | – | – | – | 201 | 265 | 253 | 355 | 216
